Source: patent publication US20160274129
Where a chain is given by its changes, count along the chain named. Where “and” joins values, the source holds several entries; their conditions need not be identical. Equal entries are not always repeated.

T1: α-fructosyl-valyl-histidine
T1 chain: VH

T2: α-fructosyl-valyl-histidyl-leucine
T2 chain: VHL

T3: α-fructosyl-valyl-histidyl-leucyl-threonine
T3 chain: VHLT

T4: α-fructosyl-valyl-histidyl-leucyl-threonyl-proline
T4 chain: VHLTP

T5: α-fructosyl-valyl-histidyl-leucyl-threonyl-proryl-glutamic acid
T5 chain: VHLTPE

T6: α-fructosyl-valyl-histidyl-leucyl-threonyl-proryl-glutamyl-glutamyl-lysine
T6 chain: VHLTPEEK

T7: α-fructosyl-valyl-histidyl-leucyl-threonyl-proryl-glutamyl-glutamyl-lysyl-seryl-alanyl-valyl-threonyl-alanyl-leucyl-tryptophyl-glycine
T7 chain: VHLTPEEKSAVTALWG

B1: CFP-T7-H21 (protein)
chain: MTSNRADTRVIVVGGGGTIGSSTALHLVRSGYAPANITVLDTFEIPSAQSAGHDLNKIMGIDLRNKVDLQMSLEARQMWKEDELFQPFFHNTGRMDCEHTPEGIEKLKKLYQRLHDAGAGLEKTHAWLDNEDEILSKMPLLQRDQIQGWKAIWSQDGGWLAAAKAINAIGQFLKERGVKFGFGGAGSFKQPLFDDEGTTCIGVETADGTKYYADKVVLAAGAWSPTLVDLEDQCCSKAWVYAHIQLTPEEAAEYKGVPVVYNGEFGFFFEPDEFGVIKVCDEFPGFSRFKEHQPYGAPSPKRISVPRSHAKHPTDTYPDASEVSIKKAIATFLPRFQDKELFNRALCWCTDTADAALLMCEHPKWKNFILATGDSGHSFKILPNVGKYVVELIEGRLPEEMAYQWRWRPGGDALKSRRAAPPKDLADMPGWKHDPKL
B2: CFP-T7 (protein)
chain: B1 chain with D62R, K106D, L110Q, R113A
B3: CFP-T7-62D (protein)
chain: B1 chain with K106D, L110Q, R113A
B4: CFP-T7-H20 (protein)
chain: B1 chain with R113K
B5: CFP-T7-H35 (protein)
chain: B1 chain with L63H, E102K, R113K, A355S
B6: CFP-T7-H1 (protein)
chain: B1 chain with D62A, K106D, L110Q, R113A
B7: CFP-T7-H13 (protein)
chain: B1 chain with K106D, R113K
B8: CFP-T7-H24 (protein)
chain: B1 chain with L63A, R113K
B9: CFP-T7-H14 (protein)
chain: B1 chain with K106D
B10: CFP-T7-H12 (protein)
chain: B1 chain with K106R, R113A
B11: CFP-T7-H25 (protein)
chain: B1 chain with L63D, R113K
B12: CFP-T7-H11 (protein)
chain: B1 chain with R113A
B13: CFP-T7-H28 (protein)
chain: B1 chain with L63H, E102K, R113K
B14: CFP-T7-H27 (protein)
chain: B1 chain with L63K, R113K
B15: CFP-T7-H26 (protein)
chain: B1 chain with L63H, R113K
B16: CFP-T7-H29 (protein)
chain: B1 chain with L63H, R113K, A419K
B17: FAOAo2 (protein)
chain: MTVTKSSSILIIGAGTWGASTALHLGRRGYTNVTVLDPYTVPSAISAGNDVNKIISSGQYSNKKDEIEVNEILAEEAFKGWTTDPLFKPYYHDTGVVMSACSSAGLDRLGIRVRPEEEPDVSEVTKPEHFRQLAPAVLKGNFPGWRGYHIRSNAGWAHARNALVAAIREAEKLGVKFVTGTQGRVITLIFENNDVKGAVTADGKIWRAEQTVLCAGANAAQFLDFKDQLRPTAWTLAHIRLKPEERALYKNLPVIFNIEKGFFFEPDEERGEIKICDEHPGYTNMVKSADGHLTSLPFEKTQIPKESEARVRALLSETMPQLADRPFSFARVCWCADTANREFIIDRHPEHPSLVLGCGASGRGFKYLPSIGNLIVDAIEDKVPEKVHKLTRWSPDIAVDRKWRDTLGRFGGPNRVMDFHDVKEWTNVQNKDTAKL

Molecular target: T1, α-fructosyl-valyl-histidine

Row | Protein | Specific activity (U/mg), 1 mM αFVH, purified enzyme [U/mg]
1 | B1 | 4.05
2 | B2 | 16.5
3 | B3 | 1.62
4 | B4 | 4.28
5 | B5 | 1.9

Molecular target: T2, α-fructosyl-valyl-histidyl-leucine

Row | Protein | Specific activity (U/mg), 1 mM αF3P, purified enzyme [U/mg]
6 | B2 | 0
7 | B5 | 1.24

Molecular target: T3, α-fructosyl-valyl-histidyl-leucyl-threon …

Row | Protein | Specific activity (U/mg), 1 mM αF4P, purified enzyme [U/mg]
8 | B2 | 0
9 | B5 | 0.352

Molecular target: T4, α-fructosyl-valyl-histidyl-leucyl-threon …

Row | Protein | Specific activity (U/mg), 1 mM αF5P, purified enzyme [U/mg]
10 | B2 | 0
11 | B5 | 2.15

Molecular target: T5, α-fructosyl-valyl-histidyl-leucyl-threon …

Row | Protein | Specific activity (U/mg), 1 mM αF6P, purified enzyme [U/mg] | αF6P oxidation activity (crude enzyme; αFVH oxidation activity = 100) (relative (αFVH = 100)) | αF6P/αFV | αF6P/αFVH | αF6P oxidation activity ratio (crude enzyme; CFP-T7-H6 = 100) (relative (CFP-T7-H6 = 100)) | αF6P oxidation activity ratio (crude enzyme; CFP-T7-H20 = 100) (relative (CFP-T7-H20 = 100)) | fold of specific activity on αF6P against PnFX (Amadoriase 26/Comparative Example 3) | αF6P oxidation activity ratio (crude enzyme; CFP-T7-H26 = 100) (relative (CFP-T7-H26 = 100)) | fold of specific activity on αF6P against FAOAo2 (Amadoriase 25/Comparative Example 2) | αF6P oxidation activity ratio (crude enzyme; CFP-T7-H28 = 100) (relative (CFP-T7-H28 = 100))
12 | B1 | 0.795 | 20.8 | 0.0377 and 0.0372 | 0.196 and 0.208 | – | – | – | – | – | –
13 | B6 | – | 0.0316 | 0.000222 | 0.000316 | – | – | – | – | – | –
14 | B7 | – | 4.33 | 0.00579 | 0.0433 | 207 | – | – | – | – | –
15 | B8 | – | 86.7 | 0.0461 | 0.867 | – | 123 | – | – | – | –
16 | B9 | – | 4.22 | 0.00519 | 0.0422 | 183 | – | – | – | – | –
17 | B2 | 0 | 0 | 0 | 0 | – | – | – | – | – | –
18 | B10 | – | 11.6 | 0.0165 | 0.116 | 636 | – | – | – | – | –
19 | B3 | 0.018 | – | 0.00113 | 0.00132 | – | – | 2 times (Amadoriase 26/Comparative Example 3) to 1,940 times (Amadoriase 25/Comparative Example 2) | – | – | –
20 | B11 | – | – | – | – | – | 24 | – | – | – | –
21 | B12 | – | 12.5 | 0.0245 | 0.125 | 951 | – | – | – | – | –
22 | B4 | 0.85 | 20.5 | 0.0377 and 0.0389 | 0.205 and 0.198 | – | – | – | – | – | –
23 | B13 | – | 134 | 0.124 | 1.34 | – | – | – | 117 | – | –
24 | B5 | 4.27 | – | 0.323 | 2.25 | – | – | – | – | 2 times (Amadoriase 26/Comparative Example 3) to 1,940 times (Amadoriase 25/Comparative Example 2) | 206
25 | B14 | – | – | – | – | – | 7 | – | – | – | –
26 | B15 | – | 84.3 | 0.0773 | 0.843 | – | 142 | – | – | – | –
27 | B16 | – | 111 | 0.111 | 1.11 | – | – | – | 102 | – | –
28 | B17 | 0.0022 | – | – | – | – | – | – | – | – | –

Molecular target: T6, α-fructosyl-valyl-histidyl-leucyl-threon …

Row | Protein | Specific activity (U/mg), 1 mM αF8P, purified enzyme [U/mg]
29 | B2 | 0
30 | B5 | 1.59

Molecular target: T7, α-fructosyl-valyl-histidyl-leucyl-threon …

Row | Protein | Specific activity (U/mg), 1 mM αF16P, purified enzyme [U/mg]
31 | B2 | 0
32 | B5 | 0.247
